Consider 2 molecules from patent US11207340B2, “Tumor suppressor TET1 and uses thereof” (The Chinese University of Hong Kong, priority 2017, dated 2021).

What all share (type): cell-based, human
Assay [1] has as its system TET1 promoter. In words: Demethylation treatment of silenced tumor cell lines: TET1 promoter methylation by MSP and BGS. The conditions noted are these: for TET1 promoter demethylation (unmethylated promoter alleles) by MSP: 10 μmol/L Aza 3 days, without or with TSA ~16 h, silenced tumor cell lines. The text has this:
Human tumor cell lines of multiple tissue types were used^50-55, including nasopharyngeal (NPC), esophageal squamous cell (ESCC), lung, gastric, colorectal (CRC), hepatocellular (HCC), breast, cervical, renal (RCC), bladder and prostate carcinomas, melanoma, as well as non-Hodgkin (NHL), Hodgkin (HL) and nasal natural killer (NK)/T-cell (NKTCL) lymphomas. Immortalized, non-transformed normal epithelial cell lines were used as “normal” controls. Cell lines were obtained from either American Type Culture Collection or collaborators. When needed, cell lines were treated with 10 μmol/L 5-aza-2′-deoxycytidine (Aza) (Sigma-aldrich, St Louis, Mo.) for 3 days, without or with further treatment with 100 nmol/trichostatin A (TSA) (Cayman Chemical Co., Ann Arbor, Mich.) for additional ˜16 h as previously^50,53. Normal adult and fetal tissue RNA and DNA samples were purchased commercially (Stratagene, La Jolla, Calif.; Millipore-Chemicon, Billerica, Mass.). DNA samples of primary carcinomas, nose swab from suspected NPC patients, as well as surgical margin normal tissues, have been described previously^31,51,52.
(§1) CpG island (CGI) analysis for TET1 promoter and exon 1 was performed using CpG island Searcher (http//ccnt.hsc.usc.edu/cpgislands2). Bisulfite modification of genomic DNA was carried out as described previously^56,57. For MSP analysis, approximately 50 ng of bisulfited DNA for each sample was amplified with methylation- or unmethylation-specific primer set, according to previously reported MSP protocol^58. Bisulfite-treated DNA was also amplified using a set of BGS primers, then cloned into pCR4-TOPO vector (Invitrogen, Carlsbad, Calif.), with 8-10 clones randomly picked and sequenced.

Assay [2] has as its system TET1. Description: Demethylation treatment of silenced tumor cell lines: TET1 expression by semi-quantitative RT-PCR. The conditions noted are these: 10 μmol/L Aza 3 days, alone or combined with HDAC inhibitor; nasopharyngeal, esophageal, colon, breast and renal tumor cell lines with methylated TET1. An excerpt: Human tumor cell lines of multiple tissue types were used^50-55, including nasopharyngeal (NPC), esophageal squamous cell (ESCC), lung, gastric, colorectal (CRC), hepatocellular (HCC), breast, cervical, renal (RCC), bladder and prostate carcinomas, melanoma, as well as non-Hodgkin (NHL), Hodgkin (HL) and nasal natural killer (NK)/T-cell (NKTCL) lymphomas. Immortalized, non-transformed normal epithelial cell lines were used as “normal” controls. Cell lines were obtained from either American Type Culture Collection or collaborators. When needed, cell lines were treated with 10 μmol/L 5-aza-2′-deoxycytidine (Aza) (Sigma-aldrich, St Louis, Mo.) for 3 days, without or with further treatment with 100 nmol/trichostatin A (TSA) (Cayman Chemical Co., Ann Arbor, Mich.) for additional ˜16 h as previously^50,53. Normal adult and fetal tissue RNA and DNA samples were purchased commercially (Stratagene, La Jolla, Calif.; Millipore-Chemicon, Billerica, Mass.). […]
(§2) Semi-quantitative RT-PCR and quantitative real-time PCR were performed as described before^50,53, with GAPDH as a control for all the samples shown in previous publications^31,51,52. qRT-PCR was carried out according to the manufacturer's protocol (HT7900 system; applied Biosystems), with SYBR Green master mix (applied Biosystems) used.

For assay [3], the system named is HOXA9, HOXA5, PCDH7, TCF4, MEIS1, SLIT2 and ZNF382. In words: TSG expression by semi-quantitative RT-PCR and qRT-PCR in TET1-CD-expressing carcinoma cells. How it is done: as §2
(§3) Human TET1 catalytic domain (TET1-CD) cDNA and its catalytic domain mutant (TET1-CD-mut) clones (Addgene, Cambridge, Mass.) were used as templates to generate TET1 constructs with an N-terminal Flag tag, and subcloned into pcDNA3.1 vector (Invitrogen, Carlsbad, Calif.). Cells were cultured overnight in a 12-well plate and transfected with empty vector or TET1-CD, TET1-CD-mut-expressing plasmids using Lipofectamine 2000 (Invitrogen, Carlsbad, Calif.). Forty-eight hours later, transfectants were replated in triplicate and cultured for 10-15 days in complete medium containing G418. Surviving colonies were stained with crystal violet (0.5% w/v) after methanol fixation, with visible colonies (≥50 cells) counted.

Assay [4] relates to HOXA9, SLIT2 and ZNF382 promoters. In words: TSG promoter methylation by MSP in TET1-CD-expressing tumor cells. How it is done:
as §1, §3

The test system of assay [5] is NPC tumor cells (HONE1). In words: TUNEL assay. The conditions noted are these: compared with vector or TET1-CD-mut controls. On the procedure:
Cells cultured on coverslips were fixed with 4% paraformaldehyde, and permeabilized with 0.1% triton X-100. TUNEL (Terminal deoxynucleotidyl transferase dUTP nick end labeling) staining was performed using the In Situ Cell Death Detection Kit (Roche, Mannheim, Germany).

Assay [6] deals with NPC, ESCC, gastric, colon and breast tumor cells. Description: Colony formation assay of tumor cells. To be noted: ectopic expression. On the procedure:
as §3

“Also recorded” adds a separate entry of the source.

`Nc1ncn([C@H]2C[C@H](O)[C@@H](CO)O2)c(=O)n1` [5-aza-dC, 5-aza-2′-deoxycytidine]: the “TET1 promoter demethylation (unmethylated promoter alleles) by MSP” value in assay [1] is “increased”; in assay [1] (listed as Aza), “demethylated”. In assay [1] (after Aza treatment, alone or combined with HDAC inhibitor), the “TET1 promoter CpG sites by BGS analysis” value is listed as “dramatically demethylated”. Moreover, the “TET1 expression after treatment” value in assay [2] is “restoration”.

B1: TET1-CD: Human TET1 catalytic domain (Cys-rich and DSBH regions), N-terminal Flag tag, expressed from pcDNA3.1 plasmid; SEQ ID NO:6 (protein, listed as Homo sapiens)
chain: ELPTCSCLDRVIQKDKGPYYTHLGAGPSVAAVREIMENRYGQKGNAIRIEIVVYTGKEGKSSHGCPIAKWVLRRSSDEEKVLCLVRQRTGHHCPTAVMVVLIMVWDGIPLPMADRLYTELTENLKSYNGHPTDRRCTLNENRTCTCQGIDPETCGASFSFGCSWSMYFNGCKFGRSPSPRRFRIDPSSPLHEKNLEDNLQSLATRLAPIYKQYAPVAYQNQVEYENVARECRLGSKEGRPFSGVTACLDFCAHPHRDIHNMNNGSTVVCTLTREDNRSLGVIPQDEQLHVLPLYKLSDTDEFGSKEGMEAKIKSGAIEVLAPRRKKRTCFTQPVPRSGKKRAAMMTEVLAHKIRAVEKKPIPRIKRKNNSTTTNNSKPSSLPTLGSNTETVQPEVKSETEPHFILKSSDNTKTYSLMPSAPHPVKEASPGFSWSPKTASATPAPLKNDATASCGFSERSSTPHCTMPSGRLSGANAAAADGPGISQLGEVAPLPTLSAPVMEPLINSEPSTGVTEPLTPHQPNHQPSFLTSPQDLASSPMEEDEQHSEADEPPSDEPLSDDPLSPAEEKLPHIDEYWSDSEHIFLDANIGGVAIAPAHGSVLIECARRELHATTPVEHPNRNHPTRLSLVFYQHKNLNKPQHGFELNKIKFEAKEAKNKKMKASEQKDQAANEGPEQSSEVNELNQIPSHKALTLTHDNVVTVSPYALTHVAGPYNHWV
modifications: N-terminal Flag tag
As for B1, the “TSG expression at mRNA levels (HOXA9, HOXA5, PCDH7, TCF4, MEIS1, SLIT2, ZNF382)” value in assay [3] was “Mild upregulation; also recorded: upregulated”. In assay [4], the “methylated alleles of HOXA9, SLIT2 and ZNF382 promoters” value is listed as “decreased”; the “unmethylated promoter alleles of HOXA9, SLIT2 and ZNF382” value is “increased”. Moreover, the “numbers of apoptotic cells” value in assay [5] was “significantly increased; also recorded: induced”. Moreover, in assay [6] (NPC, ESCC, gastric, colon and breast tumor cells, vs control cells), the “tumor cell clonogenicity, % of control cells” value was 40-50%. For the same molecule, the “suppression of tumor cell clonogenicity / growth” value in assay [6] (colony formation assays of tumor cells of multiple tissue types) was “inhibited”.
